Results published in patent publication US20260015399A1 (Boehringer Ingelheim, published 2026).
*1 amine or outer side, *2 acyl side, *3 side chain or, on linkers, in order; H or OH if unused. Side-chain parts run from the residue outwards. The star is where a group is joined. C18 diacid = O=C(O)CCCCCCCCCCCCCCCCC(=O)*; γGlu = O=C(O)[C@H](CCC(=O)[*:2])N[*:1]; Isovaleryl = CC(C)CC(=O)*; Ahx = NCCCCCC(=O)O

T1: human NPY2 receptor (human, UniProt P49146 1-381)
T1 construct: whole, on cells; also called hNPY2-R; hNPY2R
T1 sequence (looked up): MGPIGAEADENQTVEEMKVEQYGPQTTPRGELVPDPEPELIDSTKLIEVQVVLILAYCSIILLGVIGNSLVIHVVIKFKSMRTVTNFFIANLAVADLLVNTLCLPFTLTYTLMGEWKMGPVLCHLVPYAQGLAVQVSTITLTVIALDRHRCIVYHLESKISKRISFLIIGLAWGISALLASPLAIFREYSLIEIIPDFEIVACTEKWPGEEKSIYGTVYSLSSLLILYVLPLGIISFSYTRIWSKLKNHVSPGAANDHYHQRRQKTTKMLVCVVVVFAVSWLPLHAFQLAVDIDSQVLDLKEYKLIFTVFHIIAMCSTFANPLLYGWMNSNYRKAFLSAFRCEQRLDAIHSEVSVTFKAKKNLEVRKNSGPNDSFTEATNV


These binders were tested against T1, human NPY2 receptor (assay: RLB: displacement of 125I-PYY(1-36) from hNPY2R membranes).

| Binder | Ki |
| --- | --- |
| Isovaleryl-APEK([Ahx-γGlu-C18 diacid])PEEDATPEELQRYYVSLRHYYNWLTKQRY-NH2 (SMILES CC(C)CC(=O)N[C@@H](C)C(=O)N1CCC[C@H]1C(=O)N[C@@H](CCC(=O)O)C(=O)N[C@@H](CCCCNC(=O)CCCCCNC(=O)CC[C@H](NC(=O)CCCCCCCCCCCCCCCCC(=O)O)C(=O)O)C(=O)N1CCC[C@H]1C(=O)N[C@@H](CCC(=O)O)C(=O)N[C@@H](CCC(=O)O)C(=O)N[C@@H](CC(=O)O)C(=O)N[C@@H](C)C(=O)N[C@H](C(=O)N1CCC[C@H]1C(=O)N[C@@H](CCC(=O)O)C(=O)N[C@@H](CCC(=O)O)C(=O)N[C@@H](CC(C)C)C(=O)N[C@@H](CCC(N)=O)C(=O)N[C@@H](CCCNC(=N)N)C(=O)N[C@@H](Cc1ccc(O)cc1)C(=O)N[C@@H](Cc1ccc(O)cc1)C(=O)N[C@H](C(=O)N[C@@H](CO)C(=O)N[C@@H](CC(C)C)C(=O)N[C@@H](CCCNC(=N)N)C(=O)N[C@@H](Cc1c[nH]cn1)C(=O)N[C@@H](Cc1ccc(O)cc1)C(=O)N[C@@H](Cc1ccc(O)cc1)C(=O)N[C@@H](CC(N)=O)C(=O)N[C@@H](Cc1c[nH]c2ccccc12)C(=O)N[C@@H](CC(C)C)C(=O)N[C@H](C(=O)N[C@@H](CCCCN)C(=O)N[C@@H](CCC(N)=O)C(=O)N[C@@H](CCCNC(=N)N)C(=O)N[C@@H](Cc1ccc(O)cc1)C(N)=O)[C@@H](C)O)C(C)C)[C@@H](C)O) [Compound 180] | 15.1 nM |
| Isovaleryl-APEK([Ahx-γGlu-C18 diacid])PEEDATPEELQRYYVSLRHYYNWLQRQRY-NH2 (SMILES CC(C)CC(=O)N[C@@H](C)C(=O)N1CCC[C@H]1C(=O)N[C@@H](CCC(=O)O)C(=O)N[C@@H](CCCCNC(=O)CCCCCNC(=O)CC[C@H](NC(=O)CCCCCCCCCCCCCCCCC(=O)O)C(=O)O)C(=O)N1CCC[C@H]1C(=O)N[C@@H](CCC(=O)O)C(=O)N[C@@H](CCC(=O)O)C(=O)N[C@@H](CC(=O)O)C(=O)N[C@@H](C)C(=O)N[C@H](C(=O)N1CCC[C@H]1C(=O)N[C@@H](CCC(=O)O)C(=O)N[C@@H](CCC(=O)O)C(=O)N[C@@H](CC(C)C)C(=O)N[C@@H](CCC(N)=O)C(=O)N[C@@H](CCCNC(=N)N)C(=O)N[C@@H](Cc1ccc(O)cc1)C(=O)N[C@@H](Cc1ccc(O)cc1)C(=O)N[C@H](C(=O)N[C@@H](CO)C(=O)N[C@@H](CC(C)C)C(=O)N[C@@H](CCCNC(=N)N)C(=O)N[C@@H](Cc1c[nH]cn1)C(=O)N[C@@H](Cc1ccc(O)cc1)C(=O)N[C@@H](Cc1ccc(O)cc1)C(=O)N[C@@H](CC(N)=O)C(=O)N[C@@H](Cc1c[nH]c2ccccc12)C(=O)N[C@@H](CC(C)C)C(=O)N[C@@H](CCC(N)=O)C(=O)N[C@@H](CCCNC(=N)N)C(=O)N[C@@H](CCC(N)=O)C(=O)N[C@@H](CCCNC(=N)N)C(=O)N[C@@H](Cc1ccc(O)cc1)C(N)=O)C(C)C)[C@@H](C)O) [Compound 188] | 5.46 nM |
| Isovaleryl-APEK([Ahx-γGlu-C18 diacid])PEEDATPEEPQRYYVSLRHYYNWLTRQRY-NH2 (SMILES CC(C)CC(=O)N[C@@H](C)C(=O)N1CCC[C@H]1C(=O)N[C@@H](CCC(=O)O)C(=O)N[C@@H](CCCCNC(=O)CCCCCNC(=O)CC[C@H](NC(=O)CCCCCCCCCCCCCCCCC(=O)O)C(=O)O)C(=O)N1CCC[C@H]1C(=O)N[C@@H](CCC(=O)O)C(=O)N[C@@H](CCC(=O)O)C(=O)N[C@@H](CC(=O)O)C(=O)N[C@@H](C)C(=O)N[C@H](C(=O)N1CCC[C@H]1C(=O)N[C@@H](CCC(=O)O)C(=O)N[C@@H](CCC(=O)O)C(=O)N1CCC[C@H]1C(=O)N[C@@H](CCC(N)=O)C(=O)N[C@@H](CCCNC(=N)N)C(=O)N[C@@H](Cc1ccc(O)cc1)C(=O)N[C@@H](Cc1ccc(O)cc1)C(=O)N[C@H](C(=O)N[C@@H](CO)C(=O)N[C@@H](CC(C)C)C(=O)N[C@@H](CCCNC(=N)N)C(=O)N[C@@H](Cc1c[nH]cn1)C(=O)N[C@@H](Cc1ccc(O)cc1)C(=O)N[C@@H](Cc1ccc(O)cc1)C(=O)N[C@@H](CC(N)=O)C(=O)N[C@@H](Cc1c[nH]c2ccccc12)C(=O)N[C@@H](CC(C)C)C(=O)N[C@H](C(=O)N[C@@H](CCCNC(=N)N)C(=O)N[C@@H](CCC(N)=O)C(=O)N[C@@H](CCCNC(=N)N)C(=O)N[C@@H](Cc1ccc(O)cc1)C(N)=O)[C@@H](C)O)C(C)C)[C@@H](C)O) [Compound 187] | 15.3 nM |

Now those with a lower Ki, led by results:

| Ki | Binder |
| --- | --- |
| 0.89 nM | Isovaleryl-APEK([Ahx-γGlu-C18 diacid])PEADASPEETQRYYVALRHYYNWLTRQRY-NH2 (SMILES CC(C)CC(=O)N[C@@H](C)C(=O)N1CCC[C@H]1C(=O)N[C@@H](CCC(=O)O)C(=O)N[C@@H](CCCCNC(=O)CCCCCNC(=O)CC[C@H](NC(=O)CCCCCCCCCCCCCCCCC(=O)O)C(=O)O)C(=O)N1CCC[C@H]1C(=O)N[C@@H](CCC(=O)O)C(=O)N[C@@H](C)C(=O)N[C@@H](CC(=O)O)C(=O)N[C@@H](C)C(=O)N[C@@H](CO)C(=O)N1CCC[C@H]1C(=O)N[C@@H](CCC(=O)O)C(=O)N[C@@H](CCC(=O)O)C(=O)N[C@H](C(=O)N[C@@H](CCC(N)=O)C(=O)N[C@@H](CCCNC(=N)N)C(=O)N[C@@H](Cc1ccc(O)cc1)C(=O)N[C@@H](Cc1ccc(O)cc1)C(=O)N[C@H](C(=O)N[C@@H](C)C(=O)N[C@@H](CC(C)C)C(=O)N[C@@H](CCCNC(=N)N)C(=O)N[C@@H](Cc1c[nH]cn1)C(=O)N[C@@H](Cc1ccc(O)cc1)C(=O)N[C@@H](Cc1ccc(O)cc1)C(=O)N[C@@H](CC(N)=O)C(=O)N[C@@H](Cc1c[nH]c2ccccc12)C(=O)N[C@@H](CC(C)C)C(=O)N[C@H](C(=O)N[C@@H](CCCNC(=N)N)C(=O)N[C@@H](CCC(N)=O)C(=O)N[C@@H](CCCNC(=N)N)C(=O)N[C@@H](Cc1ccc(O)cc1)C(N)=O)[C@@H](C)O)C(C)C)[C@@H](C)O) [Compound 179] |
| 1.33 nM | Isovaleryl-APAK([Ahx-γGlu-C18 diacid])PEADAEPEEIQRYYVALRHYYNWLTRQRY-NH2 (SMILES CC[C@H](C)[C@H](NC(=O)[C@H](CCC(=O)O)NC(=O)[C@H](CCC(=O)O)NC(=O)[C@@H]1CCCN1C(=O)[C@H](CCC(=O)O)NC(=O)[C@H](C)NC(=O)[C@H](CC(=O)O)NC(=O)[C@H](C)NC(=O)[C@H](CCC(=O)O)NC(=O)[C@@H]1CCCN1C(=O)[C@H](CCCCNC(=O)CCCCCNC(=O)CC[C@H](NC(=O)CCCCCCCCCCCCCCCCC(=O)O)C(=O)O)NC(=O)[C@H](C)NC(=O)[C@@H]1CCCN1C(=O)[C@H](C)NC(=O)CC(C)C)C(=O)N[C@@H](CCC(N)=O)C(=O)N[C@@H](CCCNC(=N)N)C(=O)N[C@@H](Cc1ccc(O)cc1)C(=O)N[C@@H](Cc1ccc(O)cc1)C(=O)N[C@H](C(=O)N[C@@H](C)C(=O)N[C@@H](CC(C)C)C(=O)N[C@@H](CCCNC(=N)N)C(=O)N[C@@H](Cc1c[nH]cn1)C(=O)N[C@@H](Cc1ccc(O)cc1)C(=O)N[C@@H](Cc1ccc(O)cc1)C(=O)N[C@@H](CC(N)=O)C(=O)N[C@@H](Cc1c[nH]c2ccccc12)C(=O)N[C@@H](CC(C)C)C(=O)N[C@H](C(=O)N[C@@H](CCCNC(=N)N)C(=O)N[C@@H](CCC(N)=O)C(=O)N[C@@H](CCCNC(=N)N)C(=O)N[C@@H](Cc1ccc(O)cc1)C(N)=O)[C@@H](C)O)C(C)C) [Compound 181] |
| 2.06 nM | Isovaleryl-APAK([Ahx-γGlu-C18 diacid])PEEDASEEELQRYYVSLRHYYNWLTRQRY-NH2 (SMILES CC(C)CC(=O)N[C@@H](C)C(=O)N1CCC[C@H]1C(=O)N[C@@H](C)C(=O)N[C@@H](CCCCNC(=O)CCCCCNC(=O)CC[C@H](NC(=O)CCCCCCCCCCCCCCCCC(=O)O)C(=O)O)C(=O)N1CCC[C@H]1C(=O)N[C@@H](CCC(=O)O)C(=O)N[C@@H](CCC(=O)O)C(=O)N[C@@H](CC(=O)O)C(=O)N[C@@H](C)C(=O)N[C@@H](CO)C(=O)N[C@@H](CCC(=O)O)C(=O)N[C@@H](CCC(=O)O)C(=O)N[C@@H](CCC(=O)O)C(=O)N[C@@H](CC(C)C)C(=O)N[C@@H](CCC(N)=O)C(=O)N[C@@H](CCCNC(=N)N)C(=O)N[C@@H](Cc1ccc(O)cc1)C(=O)N[C@@H](Cc1ccc(O)cc1)C(=O)N[C@H](C(=O)N[C@@H](CO)C(=O)N[C@@H](CC(C)C)C(=O)N[C@@H](CCCNC(=N)N)C(=O)N[C@@H](Cc1c[nH]cn1)C(=O)N[C@@H](Cc1ccc(O)cc1)C(=O)N[C@@H](Cc1ccc(O)cc1)C(=O)N[C@@H](CC(N)=O)C(=O)N[C@@H](Cc1c[nH]c2ccccc12)C(=O)N[C@@H](CC(C)C)C(=O)N[C@H](C(=O)N[C@@H](CCCNC(=N)N)C(=O)N[C@@H](CCC(N)=O)C(=O)N[C@@H](CCCNC(=N)N)C(=O)N[C@@H](Cc1ccc(O)cc1)C(N)=O)[C@@H](C)O)C(C)C) [Compound 185] |
